Reference: patent US20180147232

B1: recombinant His-SGK1 (Δ60) (protein)
chain: ISQPQEPELMNANPSPPPSPSQQINLGPSSNPHAKPSDFHFLKVIGKGSFGKVLLARHKAEEVFYAVKVLQKKAILKKKEEKHIMSERNVLLKNVKHPFLVGLHFSFQTADKLYFVLDYINGGELFYHLQRERCFLEPRARFYAAEIASALGYLHSLNIVYRDLKPENILLDSQGHIVLTDFGLCKENIEHNSTTSTFCGTPEYLAPEVLHKQPYDRTVDWWCLGAVLYEMLYGLPPFYSRNTAEMYDNILNKPLQLKPNITNSARHLLEGLLQKDRTKRLGAKDDFMEIKSHVFFSLINWDDLINKKITPPFNPNVSGPNDLRHFDPEFTEEPVPNSIGKSPDSVLVTASVKEAAEAFLGFDYAPPTDSFL
Flag-TSC2 6A, P49815
Flag-TSC2 6A, P49815, sequence (P49815 other isoform, or with tags, fused parts or gaps): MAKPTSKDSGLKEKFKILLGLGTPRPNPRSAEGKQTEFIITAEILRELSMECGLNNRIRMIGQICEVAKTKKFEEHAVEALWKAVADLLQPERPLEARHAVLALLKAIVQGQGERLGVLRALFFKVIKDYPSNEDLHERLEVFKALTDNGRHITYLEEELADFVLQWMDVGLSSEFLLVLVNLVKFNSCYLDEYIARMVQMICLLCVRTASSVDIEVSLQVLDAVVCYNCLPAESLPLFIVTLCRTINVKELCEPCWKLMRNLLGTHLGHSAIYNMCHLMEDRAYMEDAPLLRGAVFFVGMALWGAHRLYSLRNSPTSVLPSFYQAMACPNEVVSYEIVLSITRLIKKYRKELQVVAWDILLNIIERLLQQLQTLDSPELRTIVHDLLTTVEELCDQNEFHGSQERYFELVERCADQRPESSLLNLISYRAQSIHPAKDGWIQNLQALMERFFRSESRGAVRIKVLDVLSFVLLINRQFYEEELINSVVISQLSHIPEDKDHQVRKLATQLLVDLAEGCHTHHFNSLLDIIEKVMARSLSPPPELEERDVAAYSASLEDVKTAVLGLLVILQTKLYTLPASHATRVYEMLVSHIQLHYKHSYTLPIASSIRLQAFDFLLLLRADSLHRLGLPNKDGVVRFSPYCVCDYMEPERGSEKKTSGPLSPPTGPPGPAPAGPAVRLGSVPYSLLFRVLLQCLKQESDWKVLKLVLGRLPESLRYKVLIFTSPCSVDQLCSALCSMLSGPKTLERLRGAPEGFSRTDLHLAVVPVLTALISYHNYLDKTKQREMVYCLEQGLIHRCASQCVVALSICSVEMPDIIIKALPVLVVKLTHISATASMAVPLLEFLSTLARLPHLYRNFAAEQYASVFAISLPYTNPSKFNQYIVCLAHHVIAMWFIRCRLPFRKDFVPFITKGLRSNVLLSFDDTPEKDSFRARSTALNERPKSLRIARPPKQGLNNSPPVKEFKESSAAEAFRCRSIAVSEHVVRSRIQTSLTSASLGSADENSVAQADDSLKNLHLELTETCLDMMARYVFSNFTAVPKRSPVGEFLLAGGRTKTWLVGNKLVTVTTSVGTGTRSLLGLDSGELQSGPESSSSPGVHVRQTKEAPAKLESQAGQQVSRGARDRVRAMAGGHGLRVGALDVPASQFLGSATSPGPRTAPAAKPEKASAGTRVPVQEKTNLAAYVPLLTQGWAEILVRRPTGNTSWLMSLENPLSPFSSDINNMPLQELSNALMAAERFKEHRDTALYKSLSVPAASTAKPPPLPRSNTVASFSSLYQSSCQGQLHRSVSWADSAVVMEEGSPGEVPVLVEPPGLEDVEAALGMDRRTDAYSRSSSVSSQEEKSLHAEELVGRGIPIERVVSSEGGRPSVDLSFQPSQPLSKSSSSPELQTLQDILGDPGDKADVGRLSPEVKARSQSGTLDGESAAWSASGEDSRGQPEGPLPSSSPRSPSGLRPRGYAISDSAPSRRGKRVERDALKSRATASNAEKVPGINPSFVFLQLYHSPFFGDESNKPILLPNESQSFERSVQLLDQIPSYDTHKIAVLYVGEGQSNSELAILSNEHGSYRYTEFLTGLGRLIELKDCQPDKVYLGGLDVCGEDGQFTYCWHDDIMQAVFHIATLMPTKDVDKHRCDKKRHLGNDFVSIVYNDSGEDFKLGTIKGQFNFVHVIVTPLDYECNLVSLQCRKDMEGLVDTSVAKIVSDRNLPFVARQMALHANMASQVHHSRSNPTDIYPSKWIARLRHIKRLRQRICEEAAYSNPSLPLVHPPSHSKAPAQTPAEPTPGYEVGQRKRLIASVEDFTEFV
  phosphorylation of TSC2, in vitro kinase assay: Mutation of these six sites into the non-phosphorylatable amino acid alanine (TSC2 6A) completely abrogated the ability of SGK1 to phosphorylate TSC2 in vitro
Flag-TSC2, P49815
Flag-TSC2, P49815, sequence (P49815 whole entry): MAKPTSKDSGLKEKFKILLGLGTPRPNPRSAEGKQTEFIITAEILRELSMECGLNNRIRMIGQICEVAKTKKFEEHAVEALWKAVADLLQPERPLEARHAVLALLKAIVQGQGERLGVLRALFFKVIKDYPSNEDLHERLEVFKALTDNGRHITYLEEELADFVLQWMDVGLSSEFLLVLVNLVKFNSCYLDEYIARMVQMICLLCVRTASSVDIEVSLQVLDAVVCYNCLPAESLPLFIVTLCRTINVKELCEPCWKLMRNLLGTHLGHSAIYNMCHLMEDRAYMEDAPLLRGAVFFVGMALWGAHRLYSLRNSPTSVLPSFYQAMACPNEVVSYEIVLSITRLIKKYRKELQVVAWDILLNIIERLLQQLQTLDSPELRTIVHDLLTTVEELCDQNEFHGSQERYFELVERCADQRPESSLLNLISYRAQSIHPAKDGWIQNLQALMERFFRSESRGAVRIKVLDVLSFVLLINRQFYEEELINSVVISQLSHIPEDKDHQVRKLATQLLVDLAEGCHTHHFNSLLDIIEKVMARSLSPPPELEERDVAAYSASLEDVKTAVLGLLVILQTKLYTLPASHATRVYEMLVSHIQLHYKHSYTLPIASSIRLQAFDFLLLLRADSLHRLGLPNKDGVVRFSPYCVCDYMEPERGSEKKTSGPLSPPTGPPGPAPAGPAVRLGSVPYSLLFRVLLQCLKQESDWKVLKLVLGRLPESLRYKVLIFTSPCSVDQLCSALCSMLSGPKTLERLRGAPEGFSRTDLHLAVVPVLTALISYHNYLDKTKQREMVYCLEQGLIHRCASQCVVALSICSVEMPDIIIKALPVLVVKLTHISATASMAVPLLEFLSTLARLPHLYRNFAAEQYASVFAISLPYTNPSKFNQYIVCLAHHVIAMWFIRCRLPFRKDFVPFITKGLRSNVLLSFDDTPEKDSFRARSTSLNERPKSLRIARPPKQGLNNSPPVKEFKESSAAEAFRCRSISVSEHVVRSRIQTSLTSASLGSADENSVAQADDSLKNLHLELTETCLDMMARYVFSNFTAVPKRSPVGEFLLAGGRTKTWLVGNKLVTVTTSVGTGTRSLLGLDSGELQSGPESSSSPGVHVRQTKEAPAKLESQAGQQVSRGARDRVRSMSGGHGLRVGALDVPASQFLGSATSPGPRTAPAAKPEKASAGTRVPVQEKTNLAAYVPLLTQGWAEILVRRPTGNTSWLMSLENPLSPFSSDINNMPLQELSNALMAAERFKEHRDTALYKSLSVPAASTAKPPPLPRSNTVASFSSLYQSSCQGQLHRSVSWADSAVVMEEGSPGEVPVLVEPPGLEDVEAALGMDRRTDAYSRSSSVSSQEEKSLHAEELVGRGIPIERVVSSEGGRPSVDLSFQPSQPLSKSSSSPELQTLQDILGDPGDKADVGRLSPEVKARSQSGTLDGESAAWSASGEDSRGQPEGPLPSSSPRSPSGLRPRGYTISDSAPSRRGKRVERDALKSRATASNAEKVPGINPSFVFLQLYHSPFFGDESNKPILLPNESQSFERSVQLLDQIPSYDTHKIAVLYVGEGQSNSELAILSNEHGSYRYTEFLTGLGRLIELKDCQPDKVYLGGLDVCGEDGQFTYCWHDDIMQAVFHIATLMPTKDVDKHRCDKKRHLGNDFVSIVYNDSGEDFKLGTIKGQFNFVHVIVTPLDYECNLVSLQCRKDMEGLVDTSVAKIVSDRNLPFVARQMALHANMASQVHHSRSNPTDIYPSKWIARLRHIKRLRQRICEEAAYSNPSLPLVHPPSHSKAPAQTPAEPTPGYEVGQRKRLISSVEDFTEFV
  phosphorylation of S939, S981, T993, S1130, S1132, T1462 and S1798 of TSC2 by mass spectrometry after the in vitro kinase assay: we found increased phosphorylation in all these sites, except at T993
  phosphorylation of the RXRXX(S/T) sites of TSC2, in vitro kinase assay: The addition of recombinant SGK1 kinase increased the phosphorylation of the RXRXX(S/T) (SEQ ID NO: 1) sites of TSC2 independent of the AKT activity
